Experimental findings from PMC6362427, “Identification of Three (Iso)flavonoid Glucosyltransferases From Pueraria lobata” (Frontiers in Plant Science, 2019) are described below.

Substrate in data set [1]: O=c1c(-c2ccc(O)cc2)coc2cc(O)cc(O)c12
Put plainly: HPLC glucosylation assay. The conditions noted are these: UDP-glucose co-substrate (5 mM in the activity assay), 50 mM Tris-HCl pH 8.0, 30°C. Format: biochemical, Pueraria montana.

Substrate in data set [2]: O=c1c(-c2ccc(O)cc2)coc2cc(O)ccc12
Put plainly: HPLC glucosylation assay. The format is biochemical, Pueraria montana. The conditions noted are these: UDP-glucose co-substrate (5 mM in the activity assay), 50 mM Tris-HCl pH 8.0, 30°C.

B1: PlUGT57 (Pueraria montana var. lobata) (protein)
chain: MGSEAPIHVLMVSYPAQGHINPLLRLGKCLAAKGLFVTFTTSETAGKDMRKANNITDKSVIPVGDGFLKFDFFEDGMADDDVSKKKSLSDVSAQLELVGKQYVSQMIKKHAESHHPISCIINNPFVPWVCDVAAEHAIPSAMLWIQSSAVFTAYYSYFYKLVSFPSDADPYVDVQLSSVVLKHNEVPDFLHPFSPYRFLGTLILEQFKNLSKPFCVLVDSFEELEHDYIDYLSKFLDIRPVGPLFKTPIATGTSDIRGDFMKSDDCIEWLNSRAPASVVYISFGSIVYLPQEQVTEIAHGLLNSHVSFLWVLKPPPKGYGVPPHVLPDGFFEGTRDKGKVVQWSPQEEVLAHPSVACFLTHCGWNSSMEALTLGMPMLTFPAWGDQVTNAKFLVDVFGVGIKLGYGHAAKKVVSREEVKKCLLEATVGPKAEELKQISFKWKKAAEAAVAANGSSARNLDAFMKDIKKRGAVGVNEI
notes: full-length ORF (464-477 residues range for the three), GST fusion in pGEX-2T (given as C-terminal fusion with GST tag), E. coli BL21, glutathione Sepharose purified
A word on the Km: it is the substrate concentration at which the rate is half of its maximum. For orientation: kcat means the number of substrate molecules converted per active site and unit of time at saturation. One may read the kcat/Km as the second-order rate constant that governs catalysis at low substrate concentration. As for B1, in data set [1], the Km came out at 7.68 ± 3.58 µM, the kcat amounted to 0.11 ± 0.01 s⁻¹ and the kcat/Km came to 13700 M⁻¹ s⁻¹. Besides, in data set [2], the Km stood at 16.3 ± 1.87 µM, the kcat is 0.034 ± 0.0009 s⁻¹ and the kcat/Km was 2100 M⁻¹ s⁻¹.

B2: PlUGT4 (Pueraria montana var. lobata) (protein)
chain: MEKPHIAVVPSPGFTHLVPILEFSKRLLHLHPEFHITCFIPSVGSPPSSSKAYLQTLPPTITSIFLPPITLDDVPDPSILALQIELSVNLSLPYIKQELESLCSRAKVVALVVDVFANGALDFAKELNLLSYIYLPQSAMLLSLYFYSTKLDEILSSAFRDLTKPIEIPGCVPIHNKDLPIHFQNLSSIGYKGFLERSKRFHVPDGVFMNTFLELEPGAIRALQELVKGKPKVYPVGPIIQMGSVGHENRVECLTWLDKQQEPNSVLYVSFGSGGTLSQEQLNELAFGLELSGQKFLWVVRAPSSVATVGYFCAETKDPLEFLPHGFLERTKEQGLVVPSWAPQIQVLSHGATGGFLSHCGWNSVLESVVQGVPVITWPLFAEQSLNAAMLTDDLKVALRPKVNESGLAEREEIAKVVRGLMEGNEGMEIRKRMGLLKIAAANAIKEDGSSTKTLSEVATSSRGF
notes: as for B1
Take B2: in data set [1], the Km stood at 87.3 ± 38.9 µM, the kcat turned out to be 0.014 ± 0.0021 s⁻¹ and the kcat/Km was determined as 156 M⁻¹ s⁻¹. Moreover, in data set [2], the Km worked out at 110.8 ± 36.4 µM, the kcat turned out to be 0.0075 ± 0.0009 s⁻¹ and the kcat/Km was determined as 67.1 M⁻¹ s⁻¹.
